Measurements from article PMC10871247 (bioRxiv, 2024).

What was measured:
native gel or EMSA = molecular target: the molecule itself; assay: native gel or EMSA
native MS = molecular target: the molecule itself; assay: native MS
SEC = molecular target: the molecule itself; assay: SEC

B1: 3×Ala-MxEnc (natural protein, Myxococcus xanthus)
chain: MPDFLGHAENPLREEEWARLNETVIQVARRSLVGRRILDIYGPLGAGVQTVPYDEFQGVSPGAVDIVGEQETAMVFTDARKFKTIPIIYKDFLLHWRDIEAARTHNMPLDVSAAAGAAALCAQQEDELIFYGDARLGYEGLMTANGRLTVPLGDWTSPGGGFQAIVEATRKLNEQGHFGPYAVVLSPRLYSQLHRIYEAAAVLEIETIRQLASDGVYQSNRLRGESGVVVSTGRENMDLAVSMDMVAAYLGASRMNHPFRVLEALLLRIKHPDAICTLEGAGATERR
binding result (native gel or EMSA): binds

B2: 3×His-MxEnc (K199H/T200H/G201H triple point mutant of the M. xanthus encapsulin) (natural protein, Myxococcus xanthus)
chain: MPDFLGHAENPLREEEWARLNETVIQVARRSLVGRRILDIYGPLGAGVQTVPYDEFQGVSPGAVDIVGEQETAMVFTDARKFKTIPIIYKDFLLHWRDIEAARTHNMPLDVSAAAGAAALCAQQEDELIFYGDARLGYEGLMTANGRLTVPLGDWTSPGGGFQAIVEATRKLNEQGHFGPYAVVLSPRLYSQLHRIYEHHHVLEIETIRQLASDGVYQSNRLRGESGVVVSTGRENMDLAVSMDMVAAYLGASRMNHPFRVLEALLLRIKHPDAICTLEGAGATERR
stoichiometry N (native MS): 60

B3: 3×Asp-MxEnc (natural protein, Myxococcus xanthus)
chain: MPDFLGHAENPLREEEWARLNETVIQVARRSLVGRRILDIYGPLGAGVQTVPYDEFQGVSPGAVDIVGEQETAMVFTDARKFKTIPIIYKDFLLHWRDIEAARTHNMPLDVSAAAGAAALCAQQEDELIFYGDARLGYEGLMTANGRLTVPLGDWTSPGGGFQAIVEATRKLNEQGHFGPYAVVLSPRLYSQLHRIYEDDDVLEIETIRQLASDGVYQSNRLRGESGVVVSTGRENMDLAVSMDMVAAYLGASRMNHPFRVLEALLLRIKHPDAICTLEGAGATERR
binding result (SEC): binds
